Data on 14 molecules can be found in US20230055408A1 (JIANGSU HENGRUI MEDICINE, published 2023).

Experiment [1] addresses T1, human CEA protein on the cell surface (human, UniProt P06731 35-685).
T1 construct: whole, on cells; also called CEACAM-5; CD66e
T1 sequence (looked up): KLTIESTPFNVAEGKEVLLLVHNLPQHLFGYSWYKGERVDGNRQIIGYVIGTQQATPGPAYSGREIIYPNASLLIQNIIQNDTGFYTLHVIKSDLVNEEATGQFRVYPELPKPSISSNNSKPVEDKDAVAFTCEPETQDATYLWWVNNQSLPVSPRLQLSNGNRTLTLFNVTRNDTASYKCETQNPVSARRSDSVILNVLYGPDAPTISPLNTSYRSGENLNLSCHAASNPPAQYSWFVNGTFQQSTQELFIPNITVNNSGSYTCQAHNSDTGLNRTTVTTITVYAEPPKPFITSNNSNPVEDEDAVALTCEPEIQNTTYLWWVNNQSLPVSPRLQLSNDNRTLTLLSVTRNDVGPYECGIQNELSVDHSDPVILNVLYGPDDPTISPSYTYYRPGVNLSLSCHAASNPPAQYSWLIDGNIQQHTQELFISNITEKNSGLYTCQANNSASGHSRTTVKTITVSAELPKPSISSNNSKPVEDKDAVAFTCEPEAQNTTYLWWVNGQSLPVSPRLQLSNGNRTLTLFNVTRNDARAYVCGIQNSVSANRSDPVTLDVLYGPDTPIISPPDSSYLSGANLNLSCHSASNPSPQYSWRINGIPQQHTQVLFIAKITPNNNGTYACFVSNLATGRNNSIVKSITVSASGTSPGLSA
Put plainly: FACS, MKN45 cells. How it is done: (§1) In order to detect the binding of the antibody to the CEA protein on the cell surface, the binding activity of the antibody was determined by FACS using cells expressing CEA on the cell surface. Cells were harvested and centrifuged at 400 g at 4° C. for 5 min. Pre-cooled PBS containing FBS at final concentration 10% was added, and the mixture was centrifuged at 400 g at 4° C. for 5 min; the procedures were repeated twice. The cells were seeded into a 96-well plate at 10⁵ cells/well, and 100 μL of gradient diluted antibody solution was added to each well. The plate was incubated at 4° C. for 60 min and centrifuged, and the supernatant was removed. 250 μL of pre-cooled PBS containing FBS at final concentration 10% was added to each well to resuspend the cells, and the suspension was centrifuged at 400 g at 4° C. for 5 min, followed by the removal of the supernatant; the procedures were repeated twice. 50 μL of 1:200 diluted secondary antibody Alexa Fluor@488 goat anti-human IgG (H+L) (Lifetechologies, Cat #A11013) was added. […] 250 μL of pre-cooled PBS containing FBS at final concentration 10% was added to each cell to resuspend the cells, and the suspension was centrifuged at 400 g at 4° C. for 5 min; the procedures were repeated twice. 100 μL of pre-cooled PBS was added to each well to resuspend the cells. The plate was analyzed by a flow cytometer (BD, FACSverse) for fluorescence signal values.

The target of experiment [2] is T2, monkey CEA expressed on CHO cell surface (cynomolgus monkey).
T2 construct: also called cynoCEA-CHO; monkey CEA proteins on the cell surface
T2 chain: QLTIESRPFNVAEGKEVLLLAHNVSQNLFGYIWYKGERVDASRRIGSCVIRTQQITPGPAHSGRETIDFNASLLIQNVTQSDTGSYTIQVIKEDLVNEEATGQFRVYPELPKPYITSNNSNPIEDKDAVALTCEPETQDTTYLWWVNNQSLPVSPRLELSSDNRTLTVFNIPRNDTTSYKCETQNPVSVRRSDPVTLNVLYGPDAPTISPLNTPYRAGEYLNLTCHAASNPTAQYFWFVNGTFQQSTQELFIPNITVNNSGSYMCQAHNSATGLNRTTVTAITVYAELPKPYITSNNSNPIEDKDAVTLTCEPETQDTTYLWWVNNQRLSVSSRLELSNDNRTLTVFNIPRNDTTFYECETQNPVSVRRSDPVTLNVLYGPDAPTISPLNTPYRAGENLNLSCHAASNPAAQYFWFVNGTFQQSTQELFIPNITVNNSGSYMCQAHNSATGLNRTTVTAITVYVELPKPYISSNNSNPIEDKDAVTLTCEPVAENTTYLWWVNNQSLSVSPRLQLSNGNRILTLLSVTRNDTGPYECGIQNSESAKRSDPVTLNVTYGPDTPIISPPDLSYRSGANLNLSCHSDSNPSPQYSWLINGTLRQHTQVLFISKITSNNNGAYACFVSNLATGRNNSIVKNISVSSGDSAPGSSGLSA
In words: FACS, cynoCEA-CHO cells. The procedure: as §1

B1: Hu103-11 (antibody, human IgG1, lambda)
heavy: not shown
light: ELVLTQSPSASASLGASVKLTCTLSSQHSTYTIEWYQQQPEKGPRYVMELKKDGSHSTGDGIPDRFSGSSSGAERYLTISSLQSEDEADYYCGVGNTIKEQFVYVFGGGTKLTVLGQPKANPTVTLFPPSSEELQANKATLVCLISDFYPGAVTVAWKADGSPVKAGVETTKPSKQSNNKYAASSYLSLTPEQWKSHRSYSCQVTHEGSTVEKTVAPTECS
As a reminder, the EC50 is the concentration giving half of the maximal effect. B1: the EC50 in experiment [1] was determined as 2.71 nM; in experiment [2] it was 0.92 nM.

B2: Hu103-2 (antibody, human IgG1, lambda, V domains shown)
VH: EVQLVQSGSELKKPGASVKVSCKASGYTFTTYGVIWVRQAPGQGLEWMGWINTYSGVPTYADDFKGRFVFSLDTSVSTAYLQISSLKAEDTAVYYCARKKTLTTVTPWFAYWGQGTLVTVSS
VL: ELVLTQSPSASASLGASVKLTCTLSSQHSTYTIEWYQQQPEKGPRYLMELKKDGSHSTGDGIPDRFSGSSSGAERYLTISSLQSEDEADYYCGVGNTIKEQFVYVFGGGTKLTVLG
As for B2, the concentration for a half-maximal effect (EC50) in experiment [1] is 2.18 nM; in experiment [2], 1.26 nM.

B3: Hu103-1 (antibody, human IgG1, lambda, V domains shown)
VH: EVQLVQSGSELKKPGASVKVSCKASGYTFTTYGVIWVRQAPGQGLEWMGWINTYSGVPTYADDFKGRFVFSLDTSVSTAYLQISSLKAEDTAVYYCARKKTLTTVTPWFAYWGQGTLVTVSS
VL: ELVLTQSPSASASLGASVKLTCTLSSQHSTYTIEWHQQQPEKGPRYLMELKKDGSHSTGDGIPDRFSGSSSGAERYLTISSLQSEDEADYYCGVGNTIKEQFVYVFGGGTKLTVLG
B3: the EC50 in experiment [1] was 2.37 nM; in experiment [2] it was 2.49 nM.

B4: Hu63-5 (antibody, human IgG1, kappa, V domains shown)
VH: EVQLVQSGAEVKKPGASVKVSCKASGYTFTDFYMNWVRQAPGQGLEWMGDIFPKNGNTDYNRKFKDRVTLTVDKSTSTVYMELSSLRSEDTAVYYCARSGYGNYVFDYWGQGTLVTVSS
VL: DVQMTQSPSSLSASVGDRVTITCRTSQDINIYLNWYQQKPGKAPKLLIYYRSGLLSGVPSRFSGSGSGTDYTLTISSLQPEDFATYYCQQGNTLPPTFGGGTKVEIKR
In the case of B4, the EC50 turned out to be 3.7 nM in experiment [1] and 2.14 nM in experiment [2].

B5: Hu63-10 (antibody, human IgG1, kappa, V domains shown)
VH: EVQLVQSGAEVKKPGASVKVSCKASGYTFTDFYMNWVRQAPGQGLEWIGDIFPKNGNTDYNRKFKDKATLTVDKSTSTVYMEFRSLRSEDTAVYYCARSGYGNYVFDYWGQGTLVTVSS
VL: DIQMTQSPSSLSASVGDRVTITCRTSQDINIYLNWYQQKPGKAPKLLIYYRSGLLSGVPSRFSGSGSGTDFTLTISSLQPEDFATYYCQQGNTLPPTFGGGTKVEIKR
On to B5, for which the EC50 turned out to be 4.95 nM in experiment [1] and 1.88 nM in experiment [2].

B6: Hu63-8 (antibody, human IgG1, kappa, V domains shown)
VH: EVQLVQSGAEVKKPGASVKVSCKASGYTFTDFYMNWVRQAPGQGLEWIGDIFPKNGNTDYNRKFKDRATLTVDKSTSTVYMEFSSLRSEDTAVYYCARSGYGNYVFDYWGQGTLVTVSS
VL: DVQMTQSPSSLSASVGDRVTITCRTSQDINIYLNWYQQKPGKAPKLLIYYRSGLLSGVPSRFSGSGSGTDYTLTISSLQPEDFATYYCQQGNTLPPTFGGGTKVEIKR
Regarding B6, the EC50 in experiment [1] was 3.24 nM; in experiment [2], 2.43 nM.

B7: Hu63-12 (antibody, human IgG1, kappa, V domains shown)
VH: EVQLVQSGAEVKKPGASVKVSCKASGYTFTDFYMNWVRQAPGQGLEWIGDIFPKNGNTDYNRKFKDKATLTVDKSTSTVYMEFRSLRSEDTAVYYCARSGYGNYVFDYWGQGTLVTVSS
VL: DVQMTQSPSSLSASVGDRVTITCRTSQDINIYLNWYQQKPGGAVKLLIYYRSGLLSGVPSRFSGSGSGTDYTLTISSLQPEDFATYYCQQGNTLPPTFGGGTKVEIKR
On to B7, for which the EC50 was 4.04 nM in experiment [1] and 2.23 nM in experiment [2].

B8: Hu63-2 (antibody, human IgG1, kappa, V domains shown)
VH: EVQLVQSGAEVKKPGASVKVSCKASGYTFTDFYMNWVRQAPGQGLEWMGDIFPKNGNTDYNRKFKDRVTMTRDTSTSTVYMELSSLRSEDTAVYYCARSGYGNYVFDYWGQGTLVTVSS
VL: DVQMTQSPSSLSASVGDRVTITCRTSQDINIYLNWYQQKPGKAPKLLIYYRSGLLSGVPSRFSGSGSGTDYTLTISSLQPEDFATYYCQQGNTLPPTFGGGTKVEIKR
B8 had an EC50 in experiment [1] of 3.73 nM.

B9: Hu63-4 (antibody, human IgG1, kappa, V domains shown)
VH: EVQLVQSGAEVKKPGASVKVSCKASGYTFTDFYMNWVRQAPGQGLEWMGDIFPKNGNTDYNRKFKDRVTLTVDKSTSTVYMELSSLRSEDTAVYYCARSGYGNYVFDYWGQGTLVTVSS
VL: DIQMTQSPSSLSASVGDRVTITCRTSQDINIYLNWYQQKPGKAPKLLIYYRSGLLSGVPSRFSGSGSGTDFTLTISSLQPEDFATYYCQQGNTLPPTFGGGTKVEIKR
On to B9, for which the EC50 was determined as 5.18 nM in experiment [1] and 1.95 nM in experiment [2].

B10: Hu63-1 (antibody, human IgG1, kappa, V domains shown)
VH: EVQLVQSGAEVKKPGASVKVSCKASGYTFTDFYMNWVRQAPGQGLEWMGDIFPKNGNTDYNRKFKDRVTMTRDTSTSTVYMELSSLRSEDTAVYYCARSGYGNYVFDYWGQGTLVTVSS
VL: DIQMTQSPSSLSASVGDRVTITCRTSQDINIYLNWYQQKPGKAPKLLIYYRSGLLSGVPSRFSGSGSGTDFTLTISSLQPEDFATYYCQQGNTLPPTFGGGTKVEIKR
Molecule B10 came in with an EC50 in experiment [1] of 4.23 nM.

B11: Hu63-6 (antibody, human IgG1, kappa, V domains shown)
VH: EVQLVQSGAEVKKPGASVKVSCKASGYTFTDFYMNWVRQAPGQGLEWMGDIFPKNGNTDYNRKFKDRVTLTVDKSTSTVYMELSSLRSEDTAVYYCARSGYGNYVFDYWGQGTLVTVSS
VL: DVQMTQSPSSLSASVGDRVTITCRTSQDINIYLNWYQQKPGGAVKLLIYYRSGLLSGVPSRFSGSGSGTDYTLTISSLQPEDFATYYCQQGNTLPPTFGGGTKVEIKR
For the molecule B11, the figures for the EC50 in experiment [1] and in experiment [2] were 3.71 nM and 2.88 nM, respectively.

B12: Hu63-11 (antibody, human IgG1, kappa, V domains shown)
VH: EVQLVQSGAEVKKPGASVKVSCKASGYTFTDFYMNWVRQAPGQGLEWIGDIFPKNGNTDYNRKFKDKATLTVDKSTSTVYMEFRSLRSEDTAVYYCARSGYGNYVFDYWGQGTLVTVSS
VL: DVQMTQSPSSLSASVGDRVTITCRTSQDINIYLNWYQQKPGKAPKLLIYYRSGLLSGVPSRFSGSGSGTDYTLTISSLQPEDFATYYCQQGNTLPPTFGGGTKVEIKR
For B12, the EC50 in experiment [1] is 4.35 nM; in experiment [2], 2.29 nM.

B13: Hu63-3 (antibody, human IgG1, kappa, V domains shown)
VH: EVQLVQSGAEVKKPGASVKVSCKASGYTFTDFYMNWVRQAPGQGLEWMGDIFPKNGNTDYNRKFKDRVTMTRDTSTSTVYMELSSLRSEDTAVYYCARSGYGNYVFDYWGQGTLVTVSS
VL: DVQMTQSPSSLSASVGDRVTITCRTSQDINIYLNWYQQKPGGAVKLLIYYRSGLLSGVPSRFSGSGSGTDYTLTISSLQPEDFATYYCQQGNTLPPTFGGGTKVEIKR
Turning to B13, the EC50 in experiment [1] amounted to 3.56 nM; in experiment [2], 2.01 nM.

B14: Hu63-9 (antibody, human IgG1, kappa, V domains shown)
VH: EVQLVQSGAEVKKPGASVKVSCKASGYTFTDFYMNWVRQAPGQGLEWIGDIFPKNGNTDYNRKFKDRATLTVDKSTSTVYMEFSSLRSEDTAVYYCARSGYGNYVFDYWGQGTLVTVSS
VL: DVQMTQSPSSLSASVGDRVTITCRTSQDINIYLNWYQQKPGGAVKLLIYYRSGLLSGVPSRFSGSGSGTDYTLTISSLQPEDFATYYCQQGNTLPPTFGGGTKVEIKR
As for B14, the EC50 in experiment [1] turned out to be 4.87 nM; in experiment [2] it was 2.47 nM.
